Biological target: T1, FtsY NG domain (SRP receptor FtsY, residues 196-498) (E. coli, UniProt P10121 196-497)
T1 sequence (looked up): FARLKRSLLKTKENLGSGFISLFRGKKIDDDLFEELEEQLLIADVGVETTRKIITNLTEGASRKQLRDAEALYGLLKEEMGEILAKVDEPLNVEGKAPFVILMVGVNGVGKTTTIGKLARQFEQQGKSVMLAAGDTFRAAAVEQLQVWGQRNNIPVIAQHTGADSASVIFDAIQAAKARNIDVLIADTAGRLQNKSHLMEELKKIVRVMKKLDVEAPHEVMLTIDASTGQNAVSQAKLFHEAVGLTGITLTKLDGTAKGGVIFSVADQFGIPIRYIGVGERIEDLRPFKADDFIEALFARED
Assay: SEC

B1: Ffh NG domain (signal recognition particle protein Ffh, residues 1-298) (domain or fragment, E. coli, UniProt P0AGD7 1-298, looked up)
chain: MFDNLTDRLSRTLRNISGRGRLTEDNVKDTLREVRMALLEADVALPVVREFINRVKEKAVGHEVNKSLTPGQEFVKIVRNELVAAMGEENQTLNLAAQPPAVVLMAGLQGAGKTTSVGKLGKFLREKHKKKVLVVSADVYRPAAIKQLETLAEQVGVDFFPSDVGQKPVDIVNAALKEAKLKFYDVLLVDTAGRLHVDEAMMDEIKQVHASINPVETLFVVDAMTGQDAANTAKAFNEALPLTGVVLTKVDGDARGGAALSIRHITGKPIKFLGVGEKTEALEPFHPDRIASRILGMG
Question: Does B1 bind?
Answer: Result: binds
